According to US20050064518A1 (PURDUE PHARMA L P, published 2005):

T1: O772P 3-repeat TM on transfected NIH/3T3 cells (human)
T1 construct: also called NIH/3T3 O772P 3-repeat
T1 chain: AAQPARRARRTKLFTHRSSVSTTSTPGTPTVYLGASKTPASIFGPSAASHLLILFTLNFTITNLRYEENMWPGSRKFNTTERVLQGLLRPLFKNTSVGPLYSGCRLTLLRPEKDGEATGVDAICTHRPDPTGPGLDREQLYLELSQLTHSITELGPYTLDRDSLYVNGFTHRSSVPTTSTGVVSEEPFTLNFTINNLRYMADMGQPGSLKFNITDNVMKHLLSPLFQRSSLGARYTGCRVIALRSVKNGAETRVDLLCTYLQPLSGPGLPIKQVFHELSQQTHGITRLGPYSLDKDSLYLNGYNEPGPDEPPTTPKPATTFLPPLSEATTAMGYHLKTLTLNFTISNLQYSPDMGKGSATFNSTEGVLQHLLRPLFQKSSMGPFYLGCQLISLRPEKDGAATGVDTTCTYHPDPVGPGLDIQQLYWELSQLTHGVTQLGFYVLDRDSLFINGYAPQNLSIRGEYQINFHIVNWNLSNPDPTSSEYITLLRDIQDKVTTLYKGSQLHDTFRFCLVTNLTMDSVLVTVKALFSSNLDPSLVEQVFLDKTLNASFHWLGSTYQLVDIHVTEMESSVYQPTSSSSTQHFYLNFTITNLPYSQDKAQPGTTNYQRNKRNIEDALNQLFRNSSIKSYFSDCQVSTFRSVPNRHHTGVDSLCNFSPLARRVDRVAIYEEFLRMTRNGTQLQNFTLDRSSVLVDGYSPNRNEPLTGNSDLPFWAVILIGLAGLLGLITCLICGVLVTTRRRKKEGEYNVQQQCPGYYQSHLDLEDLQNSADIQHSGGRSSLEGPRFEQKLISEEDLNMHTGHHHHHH

B1: OC125 (antibody)
chain 1: QVQLQESGPELVKPGASVKISCKASGYTFTDYNMHWVKQSHGKSLEWIGYIYPYNGDTGYNQKFRNKASLTVDTSSSTAYMELRSLTSEDSAVYYWARSGGFWYFDVWGQGGTTVTVSS
chain 2: DIQMTQSPAILSASPGEKVTMTCRATPSVSYMHWYQQKPGSSPKPLIYTTSNLASGVPARFSGGGSGTSYSLTVSRVEVEDAATYYCQQWSRSPPTFGAGTKLEIK
B2: O772P 3-repeat recombinant protein (other)
chain: AAQPARRARRTKLFTHRSSVSTTSTPGTPTVYLGASKTPASIFGPSAASHLLILFTLNFTITNLRYEENMWPGSRKFNTTERVLQGLLRPLFKNTSVGPLYSGCRLTLLRPEKDGEATGVDAICTHRPDPTGPGLDREQLYLELSQLTHSITELGPYTLDRDSLYVNGFTHRSSVPTTSTGVVSEEPFTLNFTINNLRYMADMGQPGSLKFNITDNVMKHLLSPLFQRSSLGARYTGCRVIALRSVKNGAETRVDLLCTYLQPLSGPGLPIKQVFHELSQQTHGITRLGPYSLDKDSLYLNGYNEPGPDEPPTTPKPATTFLPPLSEATTAMGYHLKTLTLNFTISNLQYSPDMGKGSATFNSTEGVLQHLLRPLFQKSSMGPFYLGCQLISLRPEKDGAATGVDTTCTYHPDPVGPGLDIQQLYWELSQLTHGVTQLGFYVLDRDSLFINGYAPQNLSIRGEYQINFHIVNWNLSNPDPTSSEYITLLRDIQDKVTTLYKGSQLHDTFRFCLVTNLTMDSVLVTVKALFSSNLDPSLVEQVFLDKTLNASFHWLGSTYQLVDIHVTEMESSVYQPTSSSSTQHFYLNFTITNLPYSQDKAQPGTTNYQRNKRNIEDALNQLFRNSSIKSYFSDCQVSTFRSVPNRHHTGVDSLCNFSPLARRVDRVAIYEEFLRMTRNGTQLQNFTLDRSSVLVDGYSPNRNEPLTGNSADIQHSGGRSSLEGPRFEQKLISEEDLNMHTGHHHHHH
notes: Repeats are residues 14-452 of the entry
B3: monoclonal antibody 776.1 (antibody, V domains shown)
VH: EVQLQQSGPELVKPGASVKISCKASGYTFTDYNIHWVKQSHGKILEWIGYIYPYNGVSDYNQNFKSKATLIVDNSSNTAYMELRSLTSEDSAVYYCARWDFGSGYYFDYWGQGTTLTVSS
VL: QIVLSQSPAILFASPGETVTMTCRASSSVIYMCWNQQKPGSSPKPWIYGTSTLASGVPTRFSGSGSGTSYSLTISRVEAEDAATYYCQQWSSNPFTFGSGTKLEI

How the values were obtained:
[1] = molecular target: B2; experiment: BIAcore SPR, O772P 3-repeat immobilized, mAb injected
Experimental: A […] BIAcore biosensor chip was docked into the BIAcore X instrument and activated with 55 μl of 1:1 NHS/EDC at room temperature. O772P 3-repeat region protein and BSA at 10 μg/ml in 0.05 M acetate buffer, pH 4.5, were immobilized onto the flow cell (FC) 1 and FC2 of the activated chip, respectively, at a flow rate of 5 μl/min to achieve a resonance response of 1000-2000 RU. The chip was then blocked by injection of 55 μl of ethanolamine-HCl, pH 8.5, and followed with washing 5 times with 50 mM NaOH-1 M NaCl. To measure the binding of anti-0722P mAbs to the O772P 3-repeat region immobilized to the chip, 30 μl of anti-0722P mAbs at varying concentrations in BIAcore running buffer (HBS-EP, Cat. #1001-080, BIAcore, Piscataway, N.J.) were injected over the sensor surface at a flow rate of 5 μl/min. Following completion of the injection phase, dissociation was monitored in BIAcore running buffer at the same flow rate for 360 seconds. The surface was regenerated between injections using 30 μl of 50 mM NaOH-1 M NaCl. Individual sensorgrams were analyzed using BIAevaluation.

[2] = molecular target: B2; experiment: ELISA competition, plate-bound O772P 3-repeat; competitor shed CA 125/O772P
Experimental: (§1) On the next day, the plates were washed with 200 μl 1×PBST (1× phosphate-buffered saline (PBS), 0.05% Tween 20) three times and blocked with 100 μl of 1×PBST containing 1% bovine serum albumin (BSA) for 2 hours at 37° C. […] After 1 hour incubation at 37° C., the plates were then washed with 1×PBST three times. For signal detection, 100 μl of HRP-conjugated sheep anti-mouse IgG (1:2000 dilution into 1×PBST+1% BSA, Amersham Biosciences) was added to each well and incubated for 1 hour at 37° C. The plates were washed again with 1×PBST three times. Finally, 100 μl¹ of a mixture of TMB substrate and H₂O₂ (1:1 ratio, KPL) was added into each well and the absorbance was measured at 405 nm with a plate reader (Molecular Devices Corp., Sunnyvale, Calif.). The assay was done in triplicate for each selected antibody and average values were calculated and presented. The percent inhibition compared to no competition was calculated for individual antibodies based on average values. Controls for blank and individual reagents were also included in each experiment.

[3] = molecular target: B2; experiment: ELISA competition, plate-bound O772P 3-repeat; competitor soluble O772P 3-repeat
Experimental: as §1

[4] = molecular target: B2; experiment: ELISA competition, plate-bound O772P 3-repeat; no competitor
Experimental: as §1

[5] = molecular target: B2; experiment: ELISA, plate-bound O772P 3-repeat
Experimental: On the next day, the plates were washed with 200 μl 1×PBST (1× phosphate-buffered saline (PBS), 0.05% Tween 20) three times and blocked with 100 μl of 1×PBST containing 1% bovine serum albumin (BSA) for 2 hours at 37° C. […] After 1 hour incubation at 37° C., the plates were then washed with 1×PBST three times. For signal detection, 100 μl of HRP (horseradish peroxidase)-conjugated sheep anti-mouse IgG (1:2000 dilution into 1×PBST+1% BSA; Amersham Biosciences) was added to each well and incubated for 1 hour at 37° C. The plates were again washed three times with 1×PBST. Finally, 100 μl¹ of a mixture of TMB (3,3′, 5,5′-tetramethylbenzidine) substrate and H₂O₂ (1:1 ratio, KPL Kirkguard Perry Laboratories) was added into each well and after a 5 minute incubation, the absorbance was measured at 405 nm with a plate reader (Molecular Devices Corp., Sunnyvale, Calif.). The assay was done in triplicate for each selected O772P hybridoma-produced antibody and data was collected and analyzed as a kinetic assay, measured over a 5 minute time period. Average values were calculated and presented. Controls for blank and individual reagents were also included in each experiment.

[6] = molecular target: B1; experiment: ELISA competition: soluble O772P 3-repeat at 10x w/w excess against antibody binding to plate-bound O772P 3-repeat
Experimental: as §1

[7] = molecular target: T2, monoclonal antibody 117.1; experiment: as above
T2 construct: Murine hybridoma antibody
Experimental: as §1

[8] = molecular target: T3, monoclonal antibody 368.1; experiment: as above
T3 construct: Murine hybridoma antibody
Experimental: as §1

[9] = molecular target: T4, monoclonal antibody 501.1; experiment: as above
T4 construct: Murine hybridoma antibody
Experimental: as §1

[10] = molecular target: B3; experiment: as above
Experimental: as §1

[11] = molecular target: T1, O772P 3-repeat TM on transfected …; experiment: flow cytometry, NIH/3T3 cells expressing O772P 3-repeat TM; Ab 2 µg/ml
[12] = molecular target: T5, CA 125/O772P on OVCAR-3 cells (human, UniProt Q8WXI7 1-14507); experiment: flow cytometry, OVCAR-3 cells; Ab 2 µg/ml
T5 construct: whole, on cells

T3 sequence (VH, as listed by the source, chain 1 of 2): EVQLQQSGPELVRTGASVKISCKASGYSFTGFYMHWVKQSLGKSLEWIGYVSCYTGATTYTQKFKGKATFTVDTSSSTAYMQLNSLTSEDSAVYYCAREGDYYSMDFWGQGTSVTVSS
T3 sequence (VL, as listed by the source, chain 2 of 2): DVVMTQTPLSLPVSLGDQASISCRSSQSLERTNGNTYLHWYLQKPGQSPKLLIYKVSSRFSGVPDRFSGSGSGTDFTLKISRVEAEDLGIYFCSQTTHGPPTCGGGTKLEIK
T2 sequence (VH, as listed by the source, chain 1 of 2): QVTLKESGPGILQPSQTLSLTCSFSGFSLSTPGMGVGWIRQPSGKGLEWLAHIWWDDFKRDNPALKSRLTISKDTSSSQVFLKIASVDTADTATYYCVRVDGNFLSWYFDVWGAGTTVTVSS
T2 sequence (VL, as listed by the source, chain 2 of 2): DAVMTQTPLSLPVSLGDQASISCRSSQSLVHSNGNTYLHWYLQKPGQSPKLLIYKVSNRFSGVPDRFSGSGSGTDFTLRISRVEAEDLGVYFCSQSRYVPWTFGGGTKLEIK
T4 sequence (VH, as listed by the source, chain 1 of 2): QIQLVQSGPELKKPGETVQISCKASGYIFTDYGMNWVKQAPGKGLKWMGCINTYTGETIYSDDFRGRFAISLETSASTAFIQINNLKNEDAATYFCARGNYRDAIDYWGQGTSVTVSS
T4 sequence (VL, as listed by the source, chain 2 of 2): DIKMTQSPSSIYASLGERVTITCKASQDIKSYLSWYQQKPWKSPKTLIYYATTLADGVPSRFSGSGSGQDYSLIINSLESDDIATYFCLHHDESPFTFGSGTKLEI

Row | Kd [1] | absorbance w/shed CA 125/O772P competitor (25-fold w/w excess) [2] | absorbance w/O772P 3-repeat competitor (10 x w/w excess) [3] | absorbance [4] | absorbance (OD) [5] | absorbance (OD)/µg Ab [5] | Binder | also measured
1 | 2.6 nM |  |  |  |  |  | monoclonal antibody 725.1 (antibody, V domains shown, Murine hybridoma antibody; also called hybridoma 725.1 (ATCC PTA-5124)) VH: QIQLVQSGPELKKPGETVKISCKASGYSFTNYGMNWVKQAPGKGLKWMGWINAYIGEPTYADDFKGRFAFSLEASTHTAYLQINSLKSEDTATYFCASGGNSLDFWGQGTTLTVSS VL: QIILSQSPAILSASPGEKVTMTCRASSSVSSIHWYQQKPESSPKPWIYATSNLASGVPVRFSGSGSGTSYTLTISRMEAADAATYYCQQWSIDPATFGGGTKLEI | 
2 | 3.9 nM |  |  |  |  |  | monoclonal antibody 16H9 (antibody, V domains shown, Murine hybridoma antibody; also called hybridoma 16H9 (ATCC PTA-5108)) VH: EVQLQQSGAELVKPGASVKLSCTASGFNIKDTYMHWVKQRPEQGLEWIGRIDPANGNTKYDPKFQGKATITADTSSNTAYVQLSSLTSEDTAVYYCASSDIYYGNPGGFAYWGQGTLVTVSA VL: QIVLTQSPAIMSASLGERVTMTCTASSSVSSSYLHWYQQKPGSSPKLWIYSTSNLASGVPARFSGSGSGTSYSLTISSMEAEDAATYYCHQYHRSPFTFGSGTKLEI | 
3 | 4 nM | 0.074 OD | 0.047 OD | 0.73 OD | 0.73 OD | 18 OD/µg Ab | B1 | 
4 |  |  |  |  |  |  | B2 | percent inhibition of binding [6]: 99%; percent inhibition of binding [7]: 94%; percent inhibition of binding [8]: 30%; percent inhibition of binding [9]: 96%; percent inhibition of binding [10]: 96%
5 | 0.4 nM | 0.977 OD | 0.077 OD | 1.18 OD | 1.18 OD | 29 OD/µg Ab | B3 | % positive cells [11]: 86%; % positive cells [12]: 94%
